Experiments:
[1] = biological target: human TNFα (Tumor Necrosis Factor-alpha), soluble (human) (UniProt P01375); test: cell-based or functional assay
[2] = biological target: monkey (cynomolgous macaque) GST-TNFα (cynomolgous macaque) (UniProt P79337); test: ELISA, plate coated with 2 µg/ml monkey (cynomolgus macaque) GST-TNFα, HRP goat anti-human IgG detection
[3] = biological target: transmembrane mutant TNFα expressed on the surface of CHO cells (UniProt P01375); test: cell-based or functional assay
transmembrane mutant TNFα expressed on the surface of CHO cells, sequence (P01375 whole entry, change not shown, form in doubt): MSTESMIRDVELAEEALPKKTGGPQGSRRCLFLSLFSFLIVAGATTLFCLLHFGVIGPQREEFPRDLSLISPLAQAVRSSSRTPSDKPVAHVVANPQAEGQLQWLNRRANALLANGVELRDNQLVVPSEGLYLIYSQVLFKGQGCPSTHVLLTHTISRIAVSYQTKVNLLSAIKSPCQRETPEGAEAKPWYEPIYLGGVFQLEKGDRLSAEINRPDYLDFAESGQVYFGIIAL

human TNFα (Tumor Necrosis Factor-alpha), soluble (human), sequence (P01375 77-233): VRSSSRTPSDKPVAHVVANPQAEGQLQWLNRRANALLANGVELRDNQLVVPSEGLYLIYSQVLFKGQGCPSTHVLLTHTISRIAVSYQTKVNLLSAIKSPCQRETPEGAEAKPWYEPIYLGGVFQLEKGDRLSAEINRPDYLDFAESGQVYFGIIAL
monkey (cynomolgous macaque) GST-TNFα (cynomolgous macaque), sequence (P79337 77-233): as the sequence (P01375 77-233) above, with L37V, R44T, T72N, R138L counted along it

Substance | IC50 1 hr Pre-incubation, TNF induced apoptosis in MCF-7 cells [1] [nM] | IC50 18 hr Pre-incubation, TNF induced apoptosis in MCF-7 cells [1] [nM] | In vivo Potency (IC50), ALT, hTNFα/D-GalN hepatic injury in mice [1] [nM] | In vivo Potency (IC50), human TNFα-induced IL-6 in mice [1] [nM] | EC50 (read off the curve) [2] [ng/mL] | ADCC (%) [3] [%] | CDC (%) [3] [%]
Etanercept (Fc fusion) | 0.0034 | 0.0022 | 27 | 27 | 3 |  | 
irrelevant human IgG1 control antibody |  |  |  |  |  | 2 | 2

From US20050049402A1
